From patent publication US9506077B2, “Synthetic chloroplast transit peptides” (DOW AGROSCIENCES LLC, priority 2012, dated 2016)

B1: TraP8: chloroplast transit peptide, encoding sequence SEQ ID NO:26, fused to dgt-28 (protein)
chain: MAQSSRICHGVQNPCVIISNLSKSNQNKSPFSVSLKTHQQQRRAYQISSWGLKKSNNGSVIRPVKA
modifications: Chloroplast Transit Peptide
B2: TraP23: synthetic chloroplast transit peptide, SEQ ID NO:11; encoded by SEQ ID NO:12; tested fused to GFP, dgt-28, dgt-31, cry2Aa (protein)
chain: MAQINKSANGVRNASLISNFSNTRQAKSPFSLSCGTRLKNSSRGLKKVAVRLIGSRVKVSAS
modifications: TraP23 synthetic chloroplast transit peptide
notes: tested fused to GFP, dgt-28, dgt-31, cry2Aa
B3: TraP4: chloroplast transit peptide, encoding sequence SEQ ID NO:24, fused to dgt-28 (protein)
chain: MLARQGGSLRASQCNAGLARRVEVGALVVPRPISVNDVVPHVYSAPLSVARRSCSKSSIRSTRRLQTTVCS
modifications: Chloroplast Transit Peptide

Tests used:
T1 Arabidopsis = T1 Arabidopsis response to glyphosate applied postemergence (Tables 5-7); format: in vivo, Arabidopsis thaliana
Source text: Transgenic T1 Arabidopsis plants containing the dgt-28 transgene were sprayed with differing rates of glyphosate. Elevated rates were applied in this study to determine the relative levels of resistance (105, 420, 1,680 or 3,360 g ae/ha). A typical 1× usage rate of glyphosate that will control non-transformed Arabidopsis is 420 g ae/ha. […] The T1 Arabidopsis plants that were used in this study were variable copy number for the dgt-28 transgene. The low copy dgt-28 T1 Arabidopsis plants were self-pollinated and used to produce T2 plants.
The Arabidopsis T1 transformants were first selected from the background of untransformed seed using a glufosinate selection scheme. Three flats or 30,000 seed were analyzed for each T1 construct. The T1 plants selected above were molecularly characterized and representative plants with variable copy number were subsequently transplanted to individual pots and sprayed with various rates of commercial glyphosate as previously described. The response of these plants is presented in terms of % visual injury 2 weeks after treatment (WAT). […] An arithmetic mean and standard deviation is presented for each construct used for Arabidopsis transformation. The range in individual response is also indicated in the last column for each rate and transformation. Wild-type, non-transformed Arabidopsis (c.v. Columbia) served as a glyphosate sensitive control.

T1 tobacco = experiment: Postemergence glyphosate tolerance of dgt-28 T1 tobacco (Table 25); format: in vivo, Tobacco (cv. Petit Havana); conditions: 2240 g ae/ha glyphosate, 14 DAT
Source text: T1 resistant plants from each event used in the progeny testing were given unique identifiers and sampled for zygosity analyses of the dgt-28 gene. Zygosity data were used to assign 2 hemizygous and 2 homozygous replicates to each rate of glyphosate applied allowing for a total of 4 replicates per treatment. These plants were compared against wildtype Petite havana tobacco. All plants were sprayed with a track sprayer set at 187 L/ha. The plants were sprayed from a range of 560-4480 g ae/ha DURANGO DMA™. All applications were formulated in water with the addition of 2% w/v ammonium sulfate (AMS). Plants were evaluated at 7 and 14 days after treatment. Plants were assigned an injury rating with respect to overall visual stunting, chlorosis, and necrosis. The T1 generation is segregating, so some variable response is expected due to difference in zygosity.

[1] = system: chloroplasts of the tobacco cells; experiment: Tobacco transient assay, confocal microscopy of TraP-GFP; format: cell-based, Nicotiana benthamiana; conditions: TraP23-GFP, infiltrated tobacco leaf
Source text: The Trap23 synthetic chloroplast transit peptide sequence were initially tested via a transient in planta assay. A polynucleotide sequence which encodes the Trap23v2 (SEQ ID NO:12) synthetic chloroplast transit peptide sequences was synthesized. The resulting construct contained two plant transcription units (PTU). The first PTU was comprised of the Arabidopsis thaliana Ubiquitin 10 promoter (AtUbi10 promoter; Callis, et al., (1990) J. Biol. Chem., 265: 12486-12493), TraP-green fluorescent protein fusion gene (TraP-GFP; U.S. Pat. No. 7,678,893), and Agrobacterium tumefaciens ORF 23 3′ untranslated region (AtuORF23 3′UTR; U.S. Pat. No. 5,428,147). […]
Agrobacterium-infiltrated tobacco leaves were severed from the plant, and placed into a petri-dish with water to prevent dehydration. The infiltrated tobacco leaves were observed under blue light excitation with long-pass filter glasses held in place using a Dark Reader Hand Lamp™ (Clare Chemical Research Co.; Dolores, Colo.) to identify undamaged areas of the leaf that were successfully expressing the GFP reporter proteins. […]

[2] = system: infiltrated tobacco cells; experiment: Tobacco transient assay, anti-GFP Western blot; format: cell-based, Nicotiana benthamiana; conditions: infiltrated tobacco leaf; band size vs GFP control
Procedure: Samples of the infiltrated tobacco plants were assayed via Western blotting. Leaf punches were collected and subjected to bead-milling. About 100-200 mg of leaf material was mixed with 2 BBs (steel balls; Daisy; Rogers, Ark.) and […] of PBST for 3 minutes in a Kleco™ bead mill. The samples were then spun down in a centrifuge at 14,000×g at 4° C. The supernatant was removed and either analyzed directly via Western blot or immunoprecipitated. The immunoprecipitations were performed using the Pierce Direct IP Kit™ (Thermo Scientific; Rockford, Ill.) following the manufacturer's protocol. Approximately, 50 μg of anti-GFP was bound to the resin. The samples were incubated with the resin overnight at 4° C. Next, the samples were washed and eluted the following morning and prepped for analysis by combining equal volumes of 2×8M Urea sample buffer and then boiling the samples for 5 minutes. The boiled samples were run on a 4-12% SDS-Bis Tris gel in MOPS buffer for 40 minutes. The gel was then blotted using the Invitrogen iBlot™ (Life Technologies; Carlsbad, Calif.) following the manufacturer's protocol. The blotted membrane was blocked for 10 minutes using 5% non-fat dry milk in PBS-Tween solution. The membrane was probed with the primary antibody (monoclonal anti-GFP in rabbit) used at a 1:1000 dilution in the 5% non-fat dry milk in PBS-Tween solution for 1 hour. […]

[3] = system: chloroplasts of the maize protoplast; experiment: Maize protoplast transient assay, GFP microscopy; format: cell-based, Zea mays var. B104; conditions: TraP23-GFP, maize protoplasts, 12 hours incubation
Source text: The Trap23 v2 synthetic chloroplast transit peptide-encoding polynucleotide sequence (SEQ ID NO:12) was cloned upstream of the green fluorescent protein gene and incorporated into the pDAB106598 construct (FIG. 5) for testing via the maize protoplast transient in planta assay. The resulting construct contained the following plant transcription unit (PTU). The first PTU was comprised of the Zea mays Ubiquitin 1 promoter (ZmUbi1 promoter; Christensen, A., Sharrock R., and Quail P., (1992) Maize polyubiquitin genes: structure, thermal perturbation of expression and transcript splicing, and promoter activity following transfer to protoplasts by electroporation, Plant Molecular Biology, 18:675-689), TraP-green fluorescent protein fusion gene (TraP23-GFP; U.S. Pat. No. 7,678,893), and Zea mays Peroxidase 5 3′ untranslated region (ZmPer5 3′UTR; U.S. Pat. No. 6,384,207). The construct was confirmed via restriction enzyme digestion and sequencing.
Seed of Zea mays var. B104 were surface sterilized by shaking vigorously in 50% Clorox (3% sodium hypochlorite), containing 2-3 drops of Tween 20, for about 20 minutes. […]
Transfection of 100 to 500 μl of protoplasts (1-5×10^5) was completed by adding the protoplasts to a 2 ml microfuge tube containing about 40 μg of plasmid DNA (pDAB106598), at room temperature. […] Fluorescence of GFP was viewed by microscopy after 12 hours of incubation. […]

Row | Molecule | typical 1x usage rate of glyphosate that will control non-transformed Arabidopsis (T1 Arabidopsis) [g ae/ha] | % Injury Ave (T1 tobacco) | accumulation of GFP protein within the chloroplasts (microscopy imaging) [1] | processing and cleavage of transit peptide from GFP (Western blot) [2] | accumulation of GFP within the chloroplasts (microscopy imaging) [3]
1 | O=C(O)CNCP(=O)(O)O [glyphosate] | 420 |  |  |  | 
2 | B1 |  | 9.3% |  |  | 
3 | B2 |  | 9.5% | did not accumulate detectable amounts of GFP protein within the chloroplasts | processed | accumulated within the chloroplasts
4 | B3 |  | of 37.5% was demonstrated with the event containing TraP4, |  |  | 
